Substrate in data set [1]: Cc1cn([C@H]2C[C@H](O)[C@@H](C)O2)c(=O)[nH]c1=O
Put plainly: (§1) Activity of Escherichia coli thymidine phosphorylase.

Substrate in data set [2]: Cc1cn([C@H]2C[C@H](O)[C@@H](CO)O2)c(=O)[nH]c1=O
The data set is described as §1.

Substrate in data set [3]: Cc1cn([C@H]2CC[C@@H](CO)O2)c(=O)[nH]c1=O
Described as §1.

For one protein, Km and Vmax results are on record in ChEMBL document CHEMBL1157152, “Kinetic parameters and recognition of thymidine analogues with varying functional groups by thymidine phosphorylase” (Bioorg Med Chem, 2008).

What is called Km is the substrate concentration at which the rate is half of its maximum. By Vmax is commonly meant the top rate of the reaction or transport when substrate is in excess.

B1: Thymidine phosphorylase (Escherichia coli K-12), P07650 (protein)
chain: MFLAQEIIRKKRDGHALSDEEIRFFINGIRDNTISEGQIAALAMTIFFHDMTMPERVSLTMAMRDSGTVLDWKSLHLNGPIVDKHSTGGVGDVTSLMLGPMVAACGGYIPMISGRGLGHTGGTLDKLESIPGFDIFPDDNRFREIIKDVGVAIIGQTSSLAPADKRFYATRDITATVDSIPLITASILAKKLAEGLDALVMDVKVGSGAFMPTYELSEALAEAIVGVANGAGVRTTALLTDMNQVLASSAGNAVEVREAVQFLTGEYRNPRLFDVTMALCVEMLISGKLAKDDAEARAKLQAVLDNGKAAEVFGRMVAAQKGPTDFVENYAKYLPTAMLTKAVYADTEGFVSEMDTRALGMAVVAMGGGRRQASDTIDYSVGFTDMARLGDQVDGQRPLAVIHAKDENNWQEAAKAVKAAIKLADKAPESTPTVYRRISE
As to B1, the Km in data set [1] stood at 10 mM; in data set [2] it was 2.5 mM; in data set [3], 32 mM. In addition, the Vmax in data set [1] was 3.4 mM/min; in data set [2], 5.2 mM/min; in data set [3], 0.014 mM/min.
